According to the DeepSol protein solubility set:

assay: soluble on expression in E. coli; label from the status in PepcDB or PDB records

Sequence | soluble on expression in E. coli
MGSDKIHHHHHHMSARLDAQIAFLKQADRLKSVERANVLLDLSRPENSAEHSWHLALWALVLSPFAAPDVDVDRAIRMLLLHDLVEIETGDHPIHEVTDWQAVERAERAAARKLFGLLPPDQAADFHTLWTEFDADETADARYAKMLDRCQPMFQVLCADTPRPDHVEVVRENLSSGRAAYLAEAFPEAHAHARALLERHPPVTGGFGDRLEFLAEADRLKTVLRASRLMDDSRFENSAEHSWHIMLYAWVLGEYAAAPVDIDRVLRMLLLHDLVEIDAGDNPIHGNVDHAAQEALEAAAAERLFGLLPPDQGAGLRAIWQEFETAQSADALFGKAVDRVQTPIANLENGGGSWVTYDVSLQQLVARVGTPVSRGAPGLWDWLFPQLSDCFTRLGLRL | not soluble
MGSDKIHHHHHHMSASLNYKSFSKEQQTMDNLEKQLICPICLEMFTKPVVILPCQHNLCRKCASDIFQASNPYLPTRGGTTMASGGRFRCPSCRHEVVLDRHGVYGLQRNLLVENIIDIYKQESTRPEKKSDQPMCEEHEEERINIYCLNCEVPTCSLCKVFGAHKDCQVAPLTHVFQRQKSELSDGIAILVGSNDRVQGVISQLEDTCKTIEECCRKQKQELCEKFDYLYGILEERKNEMTQVITRTQEEKLEHVRALIKKYSDHLENVSKLVESGIQFMDEPEMAVFLQNAKTLLKKISEASKAFQMEKIEHGYENMNHFTVNLNREEKIIREIDFYR | not soluble
MGSDKIHHHHHHMSASMPAYMSDPTDEQLSALNMAMDHKSFKVVAYAGAGKTTTLKLIGERLRGRGLYLAFNKAIANDARAKFPSHVECRTFHSLAYRHVARDITAKLSLPRFSPKRLGDDLGLQPVQVRRQMDGVNKYITLTPARLSRFVSDAISNFCSTHASYPAPRHILFPSWLDGSDAEQLREMLYPAVEQRWLQSIDARHPAGIGHDIYLKLWALSKPSIPADFILFDEAQDADPLMMGILTQQPRQVIYVGDAHQQIYEWRGAVNAMKRLPLPQTLLTQSFRFGEPIAEIANTLLKALQEDVPLKGNPNKQSSTDKGMVHSKKDAILCRTNAAAMSQLLTGLKLGHKVALQADTDRMLKFCQAAENLKNGKSAYGVPELAYFYNWGDVQEYSETNEGSDLKTLVKLVDDHGTNVLSQAVNSLSSIENADYVISTAHKAKGLEWGKVQLDDDFYYDVTTNAVKISPEELRLLYVACTRAQSNLDIHNIKDLISGLQTGKKVVFGNS | not soluble
MGSDKIHHHHHHMSDAAIAQDLAALAAQLQTLAGLQGKRDIQAAAASLPHRPFPKLGLAAALGDDAALLPATANRLLFACEGIHPDLVAEDPWFAGWSGVLVNLSDIAAMGGRPIAVVNSLWSRDRQHADQVFAGLQFAAEKFGIPIVGGHSNLQSPYSALSVAVLGQVGPHVLSARSAQAGDRCYLLINRDGQFYRHYPFWDAATGTAPEQLRRHWELMAQLADAGLVSAAKDVSMGGLIGTAVMFAETSGAGLDLHLDRLSYPAGVSRDRWLTCFPSFGFLLAVPEACCDRFLQRVATEPDLTCDHLGSFTNTGQVRLCDRQAQVCFWDCQEQSLMGFSALTDPESPH | not soluble
MGSDKIHHHHHHMSDSHQGSCLCGAVRFRTKGALRGVVYCHCSQCRKQSGHFYAATNVADADIVIEGTESITWYEASAFAGRGFCKTCGSVLFWKPRTQDYISVMAGAFDKPTGLKGDCHIFVGDKGDYYSIDDGLPQFEKSTPSIAVAE | not soluble
MGSDKIHHHHHHMSDTLIELRNIGKRFGGVRALDGVSLAIRPGEIHCLAGENGSGKSTVIKVMSGIYTPEEGEILIDGRPVGRLDPIRAVQHGVQVIYQDFSLFGNLTVAENLALNTYVLEGRRRMDWRRARTMAVEVLARLGVDIDPDAEVGTLPTSGRQVVAIARAILAKARLIIMDEPTTALTRHEVDALFAIVRDLQAQGIAVLFVSHKMREMLEISERLTVFRNGRKVAEGPMSDFDEAAITHAMTGLSLTDDPYRPTLPPGPPLLEVRKLSVPGSVQDIDLSLRPGEIVGISGLIGSGRTELARALFGMEPAMTGTLRLEGREIHPRSVQEAIALGIAYVPEDRLTEGLFLPQSIERNLVVSILERLRRGPFLDTRAVREKTLGMFRDMQIAAPSPETAVGNLSGGNAQRVMLGRWLLTGARVLILNGPTVGVDVGSKATIHRIIRDLAQREGLGVLMISDDVPELVTNCNRIHVMHRGRFVADLDGSGMTEDRINDALKTLN | not soluble
MGSDKIHHHHHHMSDVLAYSVPAPAVVFPPMSPAPRVVPIAVQAPRKDALGCTACSMRSICMPQGLTPTELQRIEALICPSRTIKQGETIYRANDSFQSIYVVRVGSFKTVVMHRDGREQVTGFHLAGDSLGLDGVCSGHHSCDAIALEDSKMCIIPFHLLETMCREVKAVQQHVHRMMGGEIVRESSQMMLLGTMSAEQRVAT | not soluble
MGSDKIHHHHHHMSDYLRGKRVVDPVLTSVARGYKNAAFVGESIFPIVQVEKEGIVVPLFGKGAFVEYDTERAVGAESNVLLREKSSSMDLVLNEHDLAAPVDYREQAESLFNEEAKAIRRATNGVNLKRELYAARLAQDPKVYLAASKKTLAAAERWANGKGEPVTVIEAGIEAVRNATGLRPNLLTMGASVMSVLRYHPAIQAQIGANERKRITAEILQDIFQINKVLIGEPVSSPDGKKAPIDVWADNLMLHYVSPPQPGTESADENEPSFGYTFRRKGMPVSDKYPGVGGKVSYARFTDIYKVAVVGGDAGYLITNILK | not soluble
MGSDKIHHHHHHMSEAPHLTFDLDTPGVSTGHLVVPKGADCEALSLPVFSCNRGEGPSLLITGGNHGNELQGPILARRLVKWLPEAQRCGRIIIVPEINPLAVQAWTRNTPIDGKNLNRVFPGRSDGSVSERIADAISRLLLPVVDTVLDLHSFGPTWDCAPSIISHPIADIDQMTKTVSISKAFKLPVTLLWEHNETDGMFDTLVHRQGKTFICTEFGGGVVSAEALTIYEAGVRNGLIALGLVKGKAEYPTFRQQKTGQTLETTSSDQLKSPSPGIFEPRCSVMDEVEQGDVVGVLHPMGSLSAASIDIRAQSKSTVFAIRSAMYVQGNEEVAILARPLAR | not soluble
MGSDKIHHHHHHMSEATLLSYTKKLLASPPQLSSTDLHDALLVILSLLQKCDTNSDESLSIYTKVSSFLTALRVTKLDHKAEYIAEAAKAVLRHSDLVDLPLPKKDELHPEDGPVILDIVGTGGDGQNTFNVSTSAAIVASGIQGLKICKHGGKASTSNSGAGDLIGTLGCDMFKVNSSTVPKLWPDNTFMFLLAPFFHHGMGHVSKIRKFLGIPTVFNVLGPLLHPVSHVNKRILGVYSKELAPEYAKAAALVYPGSETFIVWGHVGLDEVSPIGKTTVWHIDPTSSELKLKTFQLEPSMFGLEEHELSKCASYGPKENARILKEEVLSGKYHLGDNNPIYDYILMNTAVLYCLSQGHQNWKEGIIKAEESIHSGNALRSLEHFIDSVSSL | not soluble
MGSDKIHHHHHHMSEEPRYLAVDVGGTNLKYALINRSGQMIKKSRMETPHEGLTQFLEAIEKISDKLKGQLNGVAFSTPGRVDTTTDTIYCRNSTLPYLNEVCLPRKLQKLGLPISVENDGKSAALAESWLGNLNDVKNGMAIVLGTCVGGGIMLDGHLWAGSRRLAGEVSLMPADQTNLADDGLFGKTGSAVRMIEAVNTVIGASCLTDGHCAFAAINAGQAQATQIFRQYAREVAALILNVQTVLDLDRYVIGGGISFQPILIDEINRQYDWILERRPWVKSTIARPEILSSRFHNDANLYGALYRLFNKLDAKHDVPIDLDNLLVNAGR | not soluble
MGSDKIHHHHHHMSEETTGQLPDVLWHYTTFDTLTAILTSQCLLASDFRDTNDREEILFGFKALRDAFGTHNTWNTTEGFADPVSAAIRENEERIIEDLESSFLHGQMICLSSARDSLSMWRGYGQLTNGGGNGAVAIGFCAADLQTFCGPSDATLQSSTAHIQQNASGGFEGPSNVDYAFRNFPQLSNALSNEDYSADFHLKWTHYLAHWMKHRKHPAFAEEREYRIWGHAYDGNDKGNSQHVVFVGNHDRRKFHLAPAPDDILGPLTHPLAIQKIMVGPKTDFAKVERFTRNVFQSYTHDRPDMCASKIPFK | not soluble
MGSDKIHHHHHHMSEPVIKSLLDTDMYKITMHAAVFTNFPDVTVTYKYTNRSSQLTFNKEAINWLKEQFSYLGNLRFTEEEIEYLKQEIPYLPSAYIKYISSSNYKLHPEEQISFTSEEIEGKPTHYKLKILVSGSWKDTILYEIPLLSLISEAYFKFVDIDWDYENQLEQAEKKAETLFDNGIRFSEFGTRRRRSLKAQDLIMQGIMKAVNGNPDRNKSLLLGTSNILFAKKYGVKPIGTVAHEWVMGVASISEDYLHANKNAMDCWINTFGAKNAGLALTDTFGTDDFLKSFRPPYSDAYVGVRQDSGDPVEYTKKISHHYHDVLKLPKFSKIICYSDSLNVEKAITYSHAAKENGMLATFGIGTNFTNDFRKKSEPQVKSEPLNIVIKLLEVNGNHAIKISDNLGKNMGDPATVKRVKEELGYTERSWSGDNEAHRWT | soluble
MGSDKIHHHHHHMSESHLYTYGIIDDNESLALNVDGVAGATRAYTVSYRSLSAVVSDIETTDPERTDAAVEAHNTVLQAVLEHDATRAVVPMSFGMAFKNARTLKGVLRGARRALRSTLTEIAGTVELGVKVLAPGDDTAVDTAAVRSDVTARLSALSVGETENDCFTDRLIINKSYLVEHDTRDAFDAAIDEIDAAHDDLTVRYTGPWPPYNFVDIHIGAEQAQQGGR | not soluble
MGSDKIHHHHHHMSGFLAVKFPVKEASVADQQDFLGRFDAMSSKATATVIAHYSSSFTLASKLLSPKIRRDIEALYAMVRVADEVVDGAAAAAGCAPDAVAEILDNYERQVLLSLSVPFHTDPVIHAFGNTARKCGFEQAHIVAFFDSMRRDLSQTSYDPTQLDEYIYGSAEVIGLMCLKIFLQDSTASPQDRATMEHGARRLGAAFQKVNFLRDLAEDREGLGRSYLPVFTEEMRDEIVTDIREDLDAARLSIPLLPFGARTGVRAATDLYGCLVDNLESASLEDLKNGRIRVPSMKKASLATKAMWKEVFQK | not soluble
MGSDKIHHHHHHMSGHKCSYPWDLQDRYAQDKSVVNKMQQKYWETKQAFIKATGKKEDEHVVASDADLDAKLELFHSIQRTCLDLSKAIVLYQKRICFLSQEENELGKFLRSQGFQDKTRAGKMMQATGKALCFSSQQRLALRNPLCRFHQEVETFRHRAISDTWLTVNRMEQCRTEYRGALLWMKDVSQELDPDLYKQMEKFRKVQTQVRLAKKNFDKLKMDVCQKVDLLGASRCNLLSHMLATYQTTLLHFWEKTSHTMAAIHESFKGYQPYEFTTLKVWKLEGPLENLEKSKVLFISQAKSIAESIIIPGLRMLKRELCPQQSLFLSFFLFFYCIRIQYNENLLQSKSAN | not soluble
MGSDKIHHHHHHMSGIEAFSPKGMLHECWSAQANDYAIVCGWALQGKTFLVGDVAGGLYAFEGISGKLIWQIKDIHKGGLLAMSIHPNGKTFATAGQDGHVNIWESQKGTSTKTLELGKGWVEHIKWSPDGKFLAVVFTKYVYVFDDKGQEHWRSEEHPSTVSAIAWSNSNELATACYGQVTFFDVVNDKINQKLEWRGSLVSMVLSPDGDIVACGSQDNSVHFWRRSTDQDSEMTGYPGKPSHLAFDQTGTVLATGGSDRVTVWSFQGDGPEGTVPGELMLHTEPISCLAFSHSGMLLASGSRDGSVFSWFLQKDGQGDPVGGAFAGDLVSQIAWHPDDTALAAINANGGITVWEFKVRTKTSPQGFG | not soluble
MGSDKIHHHHHHMSHANQAIPLDEEAIFDAMPMEEEGQFANHATPLIRNCWYVCARRDEVGRTPISRRLLDTDVVMYRTRDGRPVAMHNRCPHRAFPLAKGHVEGDRLVCGYHGMQFEPDGLCAHLPAISHVPANACVQTYPIADRGPLTWIWMGDANLADEALIPELPWLASSEWGSVTGDFHIKADYVSMHENLIDQTHFPFLHPGTVGTPEYARASMNATTEGDQVLIHRRLDNAPPPGIYGKPADIMHKNVDRTSEARFVSPAVHMAHARIFDPQPEPGKPSVYGYYITHCFTPESNHSIHYWWFNSRDYGIDDTDIDAFMYEASMQAYYEDVEALEWIMDVVLTDNEAQQFELSFAPDKPGLMARRIMHRLAMSERG | not soluble
